The record followed here is patent publication US20240025984A1 (FLUX THERAPEUTICS, published 2024).

The target of the experiment is T1, SYNGAP1-nanoluc-alfa-tag-fusion.
T1 chain: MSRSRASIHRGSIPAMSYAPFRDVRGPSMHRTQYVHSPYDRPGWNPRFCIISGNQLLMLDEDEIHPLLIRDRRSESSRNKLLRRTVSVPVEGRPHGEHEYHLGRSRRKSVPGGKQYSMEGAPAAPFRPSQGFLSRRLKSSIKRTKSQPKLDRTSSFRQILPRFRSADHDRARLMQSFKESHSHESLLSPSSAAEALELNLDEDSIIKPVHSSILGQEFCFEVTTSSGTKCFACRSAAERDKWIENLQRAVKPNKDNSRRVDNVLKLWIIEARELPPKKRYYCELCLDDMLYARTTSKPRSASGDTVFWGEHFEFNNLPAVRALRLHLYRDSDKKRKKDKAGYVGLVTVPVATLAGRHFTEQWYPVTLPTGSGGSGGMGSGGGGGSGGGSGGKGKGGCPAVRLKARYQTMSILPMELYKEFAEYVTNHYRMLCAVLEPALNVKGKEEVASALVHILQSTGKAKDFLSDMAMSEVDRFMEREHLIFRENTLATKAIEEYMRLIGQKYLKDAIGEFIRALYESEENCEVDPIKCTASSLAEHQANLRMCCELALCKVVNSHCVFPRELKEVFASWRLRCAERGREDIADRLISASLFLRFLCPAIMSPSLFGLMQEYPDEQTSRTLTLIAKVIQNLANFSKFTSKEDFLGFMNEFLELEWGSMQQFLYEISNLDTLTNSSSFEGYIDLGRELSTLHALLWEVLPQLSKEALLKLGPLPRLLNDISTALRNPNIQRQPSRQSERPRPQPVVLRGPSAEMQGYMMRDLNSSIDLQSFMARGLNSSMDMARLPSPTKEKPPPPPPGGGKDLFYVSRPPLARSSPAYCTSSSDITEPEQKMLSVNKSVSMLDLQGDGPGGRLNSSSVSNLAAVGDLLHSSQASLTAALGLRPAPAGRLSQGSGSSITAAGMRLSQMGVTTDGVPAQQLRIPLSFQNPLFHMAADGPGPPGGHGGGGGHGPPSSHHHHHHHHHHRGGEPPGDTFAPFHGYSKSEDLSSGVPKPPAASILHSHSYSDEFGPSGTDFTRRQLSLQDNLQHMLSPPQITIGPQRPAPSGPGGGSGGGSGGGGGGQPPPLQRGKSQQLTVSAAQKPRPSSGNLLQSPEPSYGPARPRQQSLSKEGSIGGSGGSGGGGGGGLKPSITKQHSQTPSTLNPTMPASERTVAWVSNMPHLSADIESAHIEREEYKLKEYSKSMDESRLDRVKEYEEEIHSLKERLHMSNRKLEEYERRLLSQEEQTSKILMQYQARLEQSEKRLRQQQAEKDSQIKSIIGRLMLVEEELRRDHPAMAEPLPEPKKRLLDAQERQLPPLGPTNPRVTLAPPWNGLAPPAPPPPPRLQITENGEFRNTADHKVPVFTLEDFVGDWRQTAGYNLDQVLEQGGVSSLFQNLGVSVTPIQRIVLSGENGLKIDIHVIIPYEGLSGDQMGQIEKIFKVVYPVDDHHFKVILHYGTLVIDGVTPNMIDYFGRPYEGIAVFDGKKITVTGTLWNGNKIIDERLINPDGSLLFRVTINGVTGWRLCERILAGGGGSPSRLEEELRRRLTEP
The experiment is described as follows: cell-based or functional assay.

B1: FireflyLuciferase-P2A-anti-syngap1_FLX00156-Cezanne (other)
chain: MEDAKNIKKGPAPFYPLEDGTAGEQLHKAMKRYALVPGTIAFTDAHIEVDITYAEYFEMSVRLAEAMKRYGLNTNHRIVVCSENSLQFFMPVLGALFIGVAVAPANDIYNERELLNSMGISQPTVVFVSKKGLQKILNVQKKLPIIQKIIIMDSKTDYQGFQSMYTFVTSHLPPGFNEYDFVPESFDRDKTIALIMNSSGSTGLPKGVALPHRTACVRFSHARDPIFGNQIIPDTAILSVVPFHHGFGMFTTLGYLICGFRVVLMYRFEEELFLRSLQDYKIQSALLVPTLFSFFAKSTLIDKYDLSNLHEIASGGAPLSKEVGEAVAKRFHLPGIRQGYGLTETTSAILITPEGDDKPGAVGKVVPFFEAKVVDLDTGKTLGVNQRGELCVRGPMIMSGYVNNPEATNALIDKDGWLHSGDIAYWDEDEHFFIVDRLKSLIKYKGYQVAPAELESILLQHPNIFDAGVAGLPDDDAGELPAAVVVLEHGKTMTEKEIVDYVASQVTTAKKLRGGVVFVDEVPKGLTGKLDARKIREILIKAKKGGKIAVTRLKGSGATNFSLLKQAGDVEENPGPRSGTGSSGQVQLVESGGGLVQPGGSLRLACAASGFTFGTHAMHWVRWAPGKGFEWVSTISSGGGGTRYADSVKGRFTISRDNAKNTVYLQMDNLKPEDTAVYYCNSPSNIANDNWGQGTQVTVSSGGGGSGGGGSGGGGSGGGGSQVQLVESGGGLVQPGGSLRLACAASGFTFGTHAMHWVRWAPGKGFEWVSTISSGGGGTRYADSVKGRFTISRDNAKNTVYLQMDNLKPEDTAVYYCNSPSNIANDNWGQGTQVTVSSGAPGSGPPSFSEGSGGSRTPEKGFSDREPTRPPRPILQRQDDIVQEKRLSRGISHASSSIVSLARSHVSSNGGGGGSNEHPLEMPICAFQLPDLTVYNEDFRSFIERDLIEQSMLVALEQAGRLNWWVSVDPTSQRLLPLATTGDGNCLLHAASLGMWGFHDRDLMLRKALYALMEKGVEKEALKRRWRWQQTQQNKESGLVYTEDEWQKEWNELIKLASSEPRMHLGTNGANCGGVESSEEPVYESLEEFHVFVLAHVLRRPIVVVADTMLRDSGGEAFAPIPFGGIYLPLEVPASQCHRSPLVLAYDQAHFSALVSMEQKENTKEQAVIPLTDSEYKLLPLHFAVDPGKGWEWGKDDSDNVRLASVILSLEVKLHLLHSYMNVKWIPLSSDAQAPLAQ
Turning to B1, the “increase in SYNGAP1 expression over the control” value (shortened to “increase in SYNGAP1 expression”) is at least 2 fold.

B2: FireflyLuciferase-P2A-anti-syngap1_FLX00153-Cezanne (other)
chain: MEDAKNIKKGPAPFYPLEDGTAGEQLHKAMKRYALVPGTIAFTDAHIEVDITYAEYFEMSVRLAEAMKRYGLNTNHRIVVCSENSLQFFMPVLGALFIGVAVAPANDIYNERELLNSMGISQPTVVFVSKKGLQKILNVQKKLPIIQKIIIMDSKTDYQGFQSMYTFVTSHLPPGFNEYDFVPESFDRDKTIALIMNSSGSTGLPKGVALPHRTACVRFSHARDPIFGNQIIPDTAILSVVPFHHGFGMFTTLGYLICGFRVVLMYRFEEELFLRSLQDYKIQSALLVPTLFSFFAKSTLIDKYDLSNLHEIASGGAPLSKEVGEAVAKRFHLPGIRQGYGLTETTSAILITPEGDDKPGAVGKVVPFFEAKVVDLDTGKTLGVNQRGELCVRGPMIMSGYVNNPEATNALIDKDGWLHSGDIAYWDEDEHFFIVDRLKSLIKYKGYQVAPAELESILLQHPNIFDAGVAGLPDDDAGELPAAVVVLEHGKTMTEKEIVDYVASQVTTAKKLRGGVVFVDEVPKGLTGKLDARKIREILIKAKKGGKIAVTRLKGSGATNFSLLKQAGDVEENPGPRSGTGSSGQLQLVESGGGLVQPGESLRLSCAASGFTFSNYRMYWVRMAPGKGLEWVSDIDRSGTYTYYADSVKGRFAISRDNAKNTVYLQMNSLKPEDTAVYYCAADRRLIVDLTPEVYDHWGQGTQVTVSSGAPGSGPPSFSEGSGGSRTPEKGFSDREPTRPPRPILQRQDDIVQEKRLSRGISHASSSIVSLARSHVSSNGGGGGSNEHPLEMPICAFQLPDLTVYNEDFRSFIERDLIEQSMLVALEQAGRLNWWVSVDPTSQRLLPLATTGDGNCLLHAASLGMWGFHDRDLMLRKALYALMEKGVEKEALKRRWRWQQTQQNKESGLVYTEDEWQKEWNELIKLASSEPRMHLGTNGANCGGVESSEEPVYESLEEFHVFVLAHVLRRPIVVVADTMLRDSGGEAFAPIPFGGIYLPLEVPASQCHRSPLVLAYDQAHFSALVSMEQKENTKEQAVIPLTDSEYKLLPLHFAVDPGKGWEWGKDDSDNVRLASVILSLEVKLHLLHSYMNVKWIPLSSDAQAPLAQ
As for B2, the “increase in SYNGAP1 expression” value is at least 2 fold.

B3: FireflyLuciferase-P2A-anti-syngap1_FLX00152-Cezanne (other)
chain: MEDAKNIKKGPAPFYPLEDGTAGEQLHKAMKRYALVPGTIAFTDAHIEVDITYAEYFEMSVRLAEAMKRYGLNTNHRIVVCSENSLQFFMPVLGALFIGVAVAPANDIYNERELLNSMGISQPTVVFVSKKGLQKILNVQKKLPIIQKIIIMDSKTDYQGFQSMYTFVTSHLPPGFNEYDFVPESFDRDKTIALIMNSSGSTGLPKGVALPHRTACVRFSHARDPIFGNQIIPDTAILSVVPFHHGFGMFTTLGYLICGFRVVLMYRFEEELFLRSLQDYKIQSALLVPTLFSFFAKSTLIDKYDLSNLHEIASGGAPLSKEVGEAVAKRFHLPGIRQGYGLTETTSAILITPEGDDKPGAVGKVVPFFEAKVVDLDTGKTLGVNQRGELCVRGPMIMSGYVNNPEATNALIDKDGWLHSGDIAYWDEDEHFFIVDRLKSLIKYKGYQVAPAELESILLQHPNIFDAGVAGLPDDDAGELPAAVVVLEHGKTMTEKEIVDYVASQVTTAKKLRGGVVFVDEVPKGLTGKLDARKIREILIKAKKGGKIAVTRLKGSGATNFSLLKQAGDVEENPGPRSGTGSSGQVQLVESGGGLVQPGGSLRLSCAASGFSFSNFPMMWVRQAPGKGREWVADINQDGRNTYYADSVKGRFTISRDNAKTTVYLQMNNLNPEDTAVYYCQAIRTTTHFDSWGQGTQVTVSSGAPGSGPPSFSEGSGGSRTPEKGFSDREPTRPPRPILQRQDDIVQEKRLSRGISHASSSIVSLARSHVSSNGGGGGSNEHPLEMPICAFQLPDLTVYNEDFRSFIERDLIEQSMLVALEQAGRLNWWVSVDPTSQRLLPLATTGDGNCLLHAASLGMWGFHDRDLMLRKALYALMEKGVEKEALKRRWRWQQTQQNKESGLVYTEDEWQKEWNELIKLASSEPRMHLGTNGANCGGVESSEEPVYESLEEFHVFVLAHVLRRPIVVVADTMLRDSGGEAFAPIPFGGIYLPLEVPASQCHRSPLVLAYDQAHFSALVSMEQKENTKEQAVIPLTDSEYKLLPLHFAVDPGKGWEWGKDDSDNVRLASVILSLEVKLHLLHSYMNVKWIPLSSDAQAPLAQ
Turning to B3, the “increase in SYNGAP1 expression” value is at least 2 fold.

B4: FireflyLuciferase-P2A-anti-syngap1_FLX00157-Cezanne (other)
chain: MEDAKNIKKGPAPFYPLEDGTAGEQLHKAMKRYALVPGTIAFTDAHIEVDITYAEYFEMSVRLAEAMKRYGLNTNHRIVVCSENSLQFFMPVLGALFIGVAVAPANDIYNERELLNSMGISQPTVVFVSKKGLQKILNVQKKLPIIQKIIIMDSKTDYQGFQSMYTFVTSHLPPGFNEYDFVPESFDRDKTIALIMNSSGSTGLPKGVALPHRTACVRFSHARDPIFGNQIIPDTAILSVVPFHHGFGMFTTLGYLICGFRVVLMYRFEEELFLRSLQDYKIQSALLVPTLFSFFAKSTLIDKYDLSNLHEIASGGAPLSKEVGEAVAKRFHLPGIRQGYGLTETTSAILITPEGDDKPGAVGKVVPFFEAKVVDLDTGKTLGVNQRGELCVRGPMIMSGYVNNPEATNALIDKDGWLHSGDIAYWDEDEHFFIVDRLKSLIKYKGYQVAPAELESILLQHPNIFDAGVAGLPDDDAGELPAAVVVLEHGKTMTEKEIVDYVASQVTTAKKLRGGVVFVDEVPKGLTGKLDARKIREILIKAKKGGKIAVTRLKGSGATNFSLLKQAGDVEENPGPRSGTGSSGQVQLVESGGGLVQAGASLRLSCAASERTFGHYAMGWFRQAPGKEREFVATISWKGGTTGYAHSVKGRFTISRDSAKNMVYLQMNSLKPEDTAVYYCAARNTMSGSMSSSAYPYWGQGTQVTVSSGGGGSGGGGSGGGGSGGGGSQVQLVESGGGLVQAGASLRLSCAASERTFGHYAMGWFRQAPGKEREFVATISWKGGTTGYAHSVKGRFTISRDSAKNMVYLQMNSLKPEDTAVYYCAARNTMSGSMSSSAYPYWGQGTQVTVSSGAPGSGPPSFSEGSGGSRTPEKGFSDREPTRPPRPILQRQDDIVQEKRLSRGISHASSSIVSLARSHVSSNGGGGGSNEHPLEMPICAFQLPDLTVYNEDFRSFIERDLIEQSMLVALEQAGRLNWWVSVDPTSQRLLPLATTGDGNCLLHAASLGMWGFHDRDLMLRKALYALMEKGVEKEALKRRWRWQQTQQNKESGLVYTEDEWQKEWNELIKLASSEPRMHLGTNGANCGGVESSEEPVYESLEEFHVFVLAHVLRRPIVVVADTMLRDSGGEAFAPIPFGGIYLPLEVPASQCHRSPLVLAYDQAHFSALVSMEQKENTKEQAVIPLTDSEYKLLPLHFAVDPGKGWEWGKDDSDNVRLASVILSLEVKLHLLHSYMNVKWIPLSSDAQAPLAQ
Regarding B4, the “increase in SYNGAP1 expression” value was at least 2 fold.
